Results published in the supplement of paper PMC12855868.

B1: library; numbered along this chain (parent)
chain: MAAAGGARLLRAASAVLGGPAGRWLHHAGSRAGSSGLLRNRGPGGSAEASRSLSVSARARSSSEDKITVHFINRDGETLTTKGKVGDSLLDVVVENNLDIDGFGACEGTLACSTCHLIFEDHIYEKLDAITDEENDMLDLAYGLTDRSRLGCQICLTKSMDNMTVRVPETVADARQSIDVGKTS

Variants of: B1
Assay: scaled log2 fold change in cell abundance, elesclomol vs control (0 = silent mean, 1 = nonsense mean) (scaled log2 ratio); higher = higher viability under elesclomol (loss of FDX1 cuproptosis function)
Settings: glucose 10 mM
[1] = with ABC1 FDX1 KO, elesclomol 5 nM, 14 days
[2] = with HEK293T FDX1 KO, elesclomol 40 nM, 11 days
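Also: variant abundance is its share of total variant reads in each endpoint sample, from next-generation sequencing of the integrated ORF PCR-amplified out of genomic DNA.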

Q: How did the “scaled log2 fold change” value [1] turn out when C106Y was run?
A: 1.17

Q: What about the “scaled log2 fold change” value [2] of the same variant?
A: 1.2

Q: C106Q was tested. Which “scaled log2 fold change” value [1] did it give?
A: 0.973

Q: What about the “scaled log2 fold change” value [2] of the same variant?
A: 1.99

Q: Which results are given for C106A?
A: scaled log2 fold change [1]: 1.03; scaled log2 fold change [2]: 1.51

Q: How did the “scaled log2 fold change” value [1] turn out when C106T was run?
A: 1.19

Q: What about the “scaled log2 fold change” value [2] of the same variant?
A: 1.27

Q: For C106N, which “scaled log2 fold change” value [1] is on record?
A: 1.18

Q: And the “scaled log2 fold change” value [2]?
A: 0.906

Q: With C106K as the variant, how does the “scaled log2 fold change” value [1] read?
A: 1.09

Q: And the “scaled log2 fold change” value [2]?
A: 1.38

Q: With C106W as the variant, how does the “scaled log2 fold change” value [1] read?
A: 1.05

Q: And the “scaled log2 fold change” value [2]?
A: 1.27

Q: How did the “scaled log2 fold change” value [1] turn out when C106F was run?
A: 1.03

Q: What about the “scaled log2 fold change” value [2] of the same variant?
A: 1.44

Q: Which “scaled log2 fold change” value [1] does the source give for C106G here?
A: 1.07

Q: What about the “scaled log2 fold change” value [2] of the same variant?
A: 1.6

Q: Which results are given for G104S?
A: scaled log2 fold change [1]: 0.931; scaled log2 fold change [2]: 0.363

Q: Which “scaled log2 fold change” value [1] does the source give for G104L here?
A: 1.03

Q: And the “scaled log2 fold change” value [2]?
A: 0.779

Q: Which results are given for G104C?
A: scaled log2 fold change [1]: 0.959; scaled log2 fold change [2]: 1.19

Q: What does the source list for G104V?
A: scaled log2 fold change [1]: 0.949; scaled log2 fold change [2]: 1.02

Q: G104H was tested. Which “scaled log2 fold change” value [1] did it give?
A: 0.989

Q: And the “scaled log2 fold change” value [2]?
A: 0.725

Q: What does the source list for G104W?
A: scaled log2 fold change [1]: 0.96; scaled log2 fold change [2]: 0.69

Q: G104T was tested. Which “scaled log2 fold change” value [1] did it give?
A: 0.997

Q: And the “scaled log2 fold change” value [2]?
A: 1.59

Q: G104A was tested. Which “scaled log2 fold change” value [1] did it give?
A: 0.243

Q: And the “scaled log2 fold change” value [2]?
A: -1.55

Q: Which results are given for G104Q?
A: scaled log2 fold change [1]: 1.05; scaled log2 fold change [2]: 0.891

Q: With G104E as the variant, how does the “scaled log2 fold change” value [1] read?
A: 1.19

Q: And the “scaled log2 fold change” value [2]?
A: 0.941

Q: How did the “scaled log2 fold change” value [1] turn out when G104Y was run?
A: 0.933

Q: And the “scaled log2 fold change” value [2]?
A: 1.09

Q: Which results are given for G104N?
A: scaled log2 fold change [1]: 0.899; scaled log2 fold change [2]: 1.47

Q: Which results are given for G104M?
A: scaled log2 fold change [1]: 0.794; scaled log2 fold change [2]: 0.449

Q: For G104R, which “scaled log2 fold change” value [1] is on record?
A: 0.848

Q: And the “scaled log2 fold change” value [2]?
A: 0.682

Q: G104D was tested. Which “scaled log2 fold change” value [1] did it give?
A: 1.12

Q: What about the “scaled log2 fold change” value [2] of the same variant?
A: 0.43

Q: How did the “scaled log2 fold change” value [1] turn out when G104P was run?
A: 1.02

Q: What about the “scaled log2 fold change” value [2] of the same variant?
A: 0.598

Q: What does the source list for G104I?
A: scaled log2 fold change [1]: 0.933; scaled log2 fold change [2]: 1.53

Q: Which results are given for G104K?
A: scaled log2 fold change [1]: 0.879; scaled log2 fold change [2]: 0.468

Q: G104F was tested. Which “scaled log2 fold change” value [1] did it give?
A: 0.647

Q: What about the “scaled log2 fold change” value [2] of the same variant?
A: 0.268

Q: A105T was tested. Which “scaled log2 fold change” value [1] did it give?
A: -1.22

Q: With A105H as the variant, how does the “scaled log2 fold change” value [1] read?
A: -1.17

Q: And the “scaled log2 fold change” value [2]?
A: -0.265

Q: Which “scaled log2 fold change” value [1] does the source give for A105P here?
A: 0.895

Q: What about the “scaled log2 fold change” value [2] of the same variant?
A: 0.503

Q: How did the “scaled log2 fold change” value [1] turn out when A105W was run?
A: -0.156

Q: And the “scaled log2 fold change” value [2]?
A: 0.135

Q: Which “scaled log2 fold change” value [1] does the source give for A105E here?
A: 0.163

Q: And the “scaled log2 fold change” value [2]?
A: -0.502

Q: How did the “scaled log2 fold change” value [1] turn out when A105G was run?
A: -0.0984

Q: And the “scaled log2 fold change” value [2]?
A: -0.152

Q: With A105K as the variant, how does the “scaled log2 fold change” value [1] read?
A: 0.238

Q: What about the “scaled log2 fold change” value [2] of the same variant?
A: 0.106

Q: For A105S, which “scaled log2 fold change” value [1] is on record?
A: -0.302

Q: And the “scaled log2 fold change” value [2]?
A: 0.253

Q: For A105I, which “scaled log2 fold change” value [1] is on record?
A: -0.149

Q: What about the “scaled log2 fold change” value [2] of the same variant?
A: -0.181

Q: Which results are given for A105Y?
A: scaled log2 fold change [1]: -0.576; scaled log2 fold change [2]: 0.955

Q: For A105R, which “scaled log2 fold change” value [1] is on record?
A: 0.523

Q: What about the “scaled log2 fold change” value [2] of the same variant?
A: -0.155

Q: Which “scaled log2 fold change” value [1] does the source give for A105L here?
A: -0.395

Q: And the “scaled log2 fold change” value [2]?
A: 0.791

Q: A105Q was tested. Which “scaled log2 fold change” value [1] did it give?
A: -0.126

Q: And the “scaled log2 fold change” value [2]?
A: 0.295

Q: A105F was tested. Which “scaled log2 fold change” value [1] did it give?
A: 0.0682

Q: What about the “scaled log2 fold change” value [2] of the same variant?
A: 0.146

Q: How did the “scaled log2 fold change” value [1] turn out when A105M was run?
A: -0.336

Q: And the “scaled log2 fold change” value [2]?
A: 0.677

Q: For A105V, which “scaled log2 fold change” value [1] is on record?
A: -0.318

Q: A105C was tested. Which “scaled log2 fold change” value [1] did it give?
A: 0.134

Q: And the “scaled log2 fold change” value [2]?
A: -0.333

Q: With A105D as the variant, how does the “scaled log2 fold change” value [1] read?
A: 0.0439

Q: What about the “scaled log2 fold change” value [2] of the same variant?
A: 0.0751

Q: How did the “scaled log2 fold change” value [1] turn out when A105N was run?
A: -0.246

Q: And the “scaled log2 fold change” value [2]?
A: 0.204

Q: Which results are given for E107A?
A: scaled log2 fold change [1]: 0.00703; scaled log2 fold change [2]: -0.202

Q: With E107C as the variant, how does the “scaled log2 fold change” value [1] read?
A: 0.0589

Q: What about the “scaled log2 fold change” value [2] of the same variant?
A: 0.444

Q: With E107P as the variant, how does the “scaled log2 fold change” value [1] read?
A: 0.92

Q: And the “scaled log2 fold change” value [2]?
A: 0.951

Q: What does the source list for E107M?
A: scaled log2 fold change [1]: -0.428; scaled log2 fold change [2]: -0.835

Q: For E107I, which “scaled log2 fold change” value [1] is on record?
A: 0.227

Q: And the “scaled log2 fold change” value [2]?
A: 0.0716

Q: With E107L as the variant, how does the “scaled log2 fold change” value [1] read?
A: -0.267

Q: And the “scaled log2 fold change” value [2]?
A: -0.452

Q: Which “scaled log2 fold change” value [1] does the source give for E107D here?
A: -0.195

Q: And the “scaled log2 fold change” value [2]?
A: 0.683

Q: How did the “scaled log2 fold change” value [1] turn out when E107F was run?
A: -0.754

Q: What about the “scaled log2 fold change” value [2] of the same variant?
A: -1.14

Q: How did the “scaled log2 fold change” value [1] turn out when E107N was run?
A: 0.0244

Q: And the “scaled log2 fold change” value [2]?
A: -0.796

Q: How did the “scaled log2 fold change” value [1] turn out when E107H was run?
A: -0.0248

Q: What about the “scaled log2 fold change” value [2] of the same variant?
A: 0.933

Q: For E107G, which “scaled log2 fold change” value [1] is on record?
A: -0.152

Q: And the “scaled log2 fold change” value [2]?
A: 0.114

Q: Which “scaled log2 fold change” value [1] does the source give for E107K here?
A: -0.532

Q: And the “scaled log2 fold change” value [2]?
A: 0.255
